In article doi:10.1101/2025.11.18.686377:

Target: NGF^painless (NGF variant bearing R100E+P61S mutations) (human)
Test: native MS

Question: With “NGF^painless (NGF variant bearing R100E+P61S mutations) (ligand)” as the substance, how does the stoichiometry N read?
Answer: 2
